What was measured:
[1] = target: Recombinant human his-tagged IGF 1R extracellular domain protein (human) (UniProt P08069); experiment: SPR, captured antibody, pH 7.4
[2] = target: Recombinant human his-tagged IGF 1R extracellular domain protein (human) (UniProt P08069); experiment: SPR, captured antibody, dissociation at pH 6

Kd [1] | koff [1] | kon [1] | Kd [2] | koff [2] | kon [2] | Binder
2.76 nM | 0.00388 s⁻¹ | 1.41e+06 M⁻¹ s⁻¹ | 2.48 nM | 0.00191 s⁻¹ | 771000 M⁻¹ s⁻¹ | VRDN-03113 (antibody, V domains shown) VH: QVQLVESGGGVVQPGRSLRLSCAASGFTFSDHYMDWVRQAPGKGLEWVAIIWFDGSSKYYADSVKGRFTISRDNSKNTLYLQMNSLRAEDTAVYYCARELGRRYFDIWGRGTLVTVSS VL: EIVMTQSPATLSVSPGERATLSCRASQGVSSYLAWYQQKPGQAPRLLIYGASTRATGIPARFSGSGSGTEFTLTISSLQSEDFAVYYCQQRSRWPPWTFGQGTKLEIK
33.4 nM | 0.000991 s⁻¹ | 29700 M⁻¹ s⁻¹ | 0.0565 nM | 6.9e-06 s⁻¹ | 122000 M⁻¹ s⁻¹ | VRDN-03114 (antibody, V domains shown) VH: QVQLVESGGGVVQPGRSLRLSCAASGFTFSDHYMDWVRQAPGKGLEWVAIIWFDGSSKYYVDSVKGRFTISRDNSKNTLYLQMNSLRAEDTAVYYCARELGRRYFDIWGRGTLVTVSS VL: EIVMTQSPATLSVSPGERATLSCRASQGVSSYLAWYQQKPGQAPRLLIYGASTRATGIPARFSGSGSGTEFTLTISSLQSEDFAVYYCQQRSRWPPWTFGQGTKLEIK

— patent US20240352133A1
